The experiment addresses CD40-FasL. The experiment can be described thus: SEC; gel filtration (Superdex 200) of CD40-FasL conditioned medium; fractions analysed by Western blot (anti FasL) and CD40 ELISA. In general terms: Size exclusion chromatography separates by hydrodynamic size, large species first.

A word on the stoichiometry N: it is a count of units in the complex or per binding partner. CD40-FasL had a stoichiometry N of 6.

For the origin of these results see article PMC4189725.
